Columns and labels:
[1] = molecular target: gp130 on Ba/F3-gp130 cells (UniProt P40189)
[2] = molecular target: gp130 on human cord blood Lin-CD34+ cells (human (endogenous in cord blood Lin-CD34+ cells)) (UniProt P40189)
IL-6R (Homo sapiens) = IL-6R (Homo sapiens) (UniProt P08887); conditions: cited from earlier work
IL-6R (Homo sapiens), sequence (P08887 20-355): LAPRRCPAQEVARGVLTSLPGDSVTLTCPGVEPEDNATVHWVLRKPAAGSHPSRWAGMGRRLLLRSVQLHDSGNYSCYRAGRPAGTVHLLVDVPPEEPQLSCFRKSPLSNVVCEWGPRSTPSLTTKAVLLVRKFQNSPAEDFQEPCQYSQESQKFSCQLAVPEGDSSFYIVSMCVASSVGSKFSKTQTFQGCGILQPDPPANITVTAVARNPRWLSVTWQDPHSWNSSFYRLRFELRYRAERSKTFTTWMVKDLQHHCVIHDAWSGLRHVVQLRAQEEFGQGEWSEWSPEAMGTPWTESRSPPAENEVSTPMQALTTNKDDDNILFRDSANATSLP

gp130 on Ba/F3-gp130 cells, sequence (P40189 23-918): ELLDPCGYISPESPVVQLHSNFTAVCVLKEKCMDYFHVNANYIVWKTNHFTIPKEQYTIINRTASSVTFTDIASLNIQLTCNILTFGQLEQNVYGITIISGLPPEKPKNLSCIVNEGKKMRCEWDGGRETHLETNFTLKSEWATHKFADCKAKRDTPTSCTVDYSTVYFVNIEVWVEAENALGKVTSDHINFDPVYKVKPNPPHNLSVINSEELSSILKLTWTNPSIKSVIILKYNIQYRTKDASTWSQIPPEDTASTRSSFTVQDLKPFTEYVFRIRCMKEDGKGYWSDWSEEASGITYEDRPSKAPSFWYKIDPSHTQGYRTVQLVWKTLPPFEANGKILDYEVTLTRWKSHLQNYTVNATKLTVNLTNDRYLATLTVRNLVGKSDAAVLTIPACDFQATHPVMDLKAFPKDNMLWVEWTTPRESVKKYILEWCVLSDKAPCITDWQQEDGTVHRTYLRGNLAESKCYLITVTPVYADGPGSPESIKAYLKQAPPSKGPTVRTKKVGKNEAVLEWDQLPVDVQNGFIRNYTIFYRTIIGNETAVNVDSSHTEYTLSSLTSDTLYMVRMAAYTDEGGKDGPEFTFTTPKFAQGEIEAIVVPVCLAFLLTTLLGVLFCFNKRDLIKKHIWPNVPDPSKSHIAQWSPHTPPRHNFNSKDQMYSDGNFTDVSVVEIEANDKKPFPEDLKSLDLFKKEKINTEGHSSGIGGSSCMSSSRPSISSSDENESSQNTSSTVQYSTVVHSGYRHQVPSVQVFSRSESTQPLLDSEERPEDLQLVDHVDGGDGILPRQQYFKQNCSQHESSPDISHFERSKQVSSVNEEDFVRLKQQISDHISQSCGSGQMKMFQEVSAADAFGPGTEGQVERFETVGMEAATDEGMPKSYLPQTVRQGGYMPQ
gp130 on human cord blood Lin-CD34+ cells (human (endogenous in cord blood Lin-CD34+ cells)), sequence (P40189 23-918): as above
IL-6, sequence (P05231 30-212): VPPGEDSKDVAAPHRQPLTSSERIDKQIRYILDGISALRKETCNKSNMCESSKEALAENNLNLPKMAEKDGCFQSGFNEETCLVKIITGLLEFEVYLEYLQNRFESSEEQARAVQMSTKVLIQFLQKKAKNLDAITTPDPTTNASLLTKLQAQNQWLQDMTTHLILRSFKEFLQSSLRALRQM

Substance | proliferation of Ba/F3-gp130 cells (MTT, 72 h): dose of H11 for half-maximum proliferation [1] | CD235a+ (erythroid) cells in Lin-CD34+ liquid culture with 50 ng/ml H11, day 14, flow cytometry (27% with Hyper-IL-6, 20% in control culture) [2] | Kd (IL-6R (Homo sapiens))
Hyper IL-11 (H11) (from UniProt Q14626 23-365; P20809 19-199) | 800 to 900 pM | 39% | 
IL-6 (from UniProt P05231) |  |  | 1 nM
